Among the data in patent US6448059 are activity values, retold here.

For data set [1], the target named is T1, cysteine-tRNA synthetase (CysRS) (Escherichia coli) (UniProt P21888).
T1 sequence: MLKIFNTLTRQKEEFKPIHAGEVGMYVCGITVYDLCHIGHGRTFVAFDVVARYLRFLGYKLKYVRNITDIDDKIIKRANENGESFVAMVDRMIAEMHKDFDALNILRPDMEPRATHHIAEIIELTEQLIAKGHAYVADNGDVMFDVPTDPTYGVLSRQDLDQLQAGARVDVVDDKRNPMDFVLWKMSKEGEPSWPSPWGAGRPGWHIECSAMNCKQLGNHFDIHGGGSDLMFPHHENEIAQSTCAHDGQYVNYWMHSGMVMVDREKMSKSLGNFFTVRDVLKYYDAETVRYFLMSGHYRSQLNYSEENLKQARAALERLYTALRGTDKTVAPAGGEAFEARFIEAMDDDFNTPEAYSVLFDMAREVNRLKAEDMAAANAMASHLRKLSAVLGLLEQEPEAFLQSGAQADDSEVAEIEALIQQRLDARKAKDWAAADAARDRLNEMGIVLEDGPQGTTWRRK
The conditions noted are these: kcat/Km of aminoacylation, 37 C; relative 1.6.

In data set [2] the target is T2, cysteine-tRNA synthetase (CysRS) (Haemophilus influenzae) (UniProt P43816).
T2 sequence: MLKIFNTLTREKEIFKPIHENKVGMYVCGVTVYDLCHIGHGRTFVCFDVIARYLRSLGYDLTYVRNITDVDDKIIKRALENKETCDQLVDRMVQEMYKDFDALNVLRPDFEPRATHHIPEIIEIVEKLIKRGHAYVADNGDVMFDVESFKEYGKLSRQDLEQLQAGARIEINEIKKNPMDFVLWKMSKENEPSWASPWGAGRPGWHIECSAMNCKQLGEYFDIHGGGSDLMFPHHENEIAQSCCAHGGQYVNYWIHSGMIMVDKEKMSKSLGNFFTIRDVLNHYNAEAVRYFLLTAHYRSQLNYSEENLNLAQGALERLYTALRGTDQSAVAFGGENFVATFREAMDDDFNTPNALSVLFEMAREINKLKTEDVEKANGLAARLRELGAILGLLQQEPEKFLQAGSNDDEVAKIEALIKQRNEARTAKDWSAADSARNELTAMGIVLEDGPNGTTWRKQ
The settings on record: kcat/Km of aminoacylation, 37 C; relative 1.4.

Regarding B. subtilis tRNACys, the results for the activity in data set [1] and in data set [2] were 340000 M⁻¹ s⁻¹ and 250000 M⁻¹ s⁻¹, respectively.
